Data published in patent publication US20190154677.
pKd: −log10 of the molar value. Read-outs that look alike come from different tables or passages of the source.

Assays:
[1] = molecular target: Hepatitis B surface antigen (HBs Ag) (Hepatitis B virus) (UniProt P03141); settings: magnetic bead pulldown with q-PCR, BD buffer, room temperature
[2] = molecular target: Hepatitis B surface antigen (HBs Ag) (Hepatitis B virus) (UniProt P03141); settings: magnetic bead pulldown with q-PCR, BD buffer, room temperature; remark: listed apart in the source

Sequence of Hepatitis B surface antigen (HBs Ag) (Hepatitis B virus) (P03141 175-400): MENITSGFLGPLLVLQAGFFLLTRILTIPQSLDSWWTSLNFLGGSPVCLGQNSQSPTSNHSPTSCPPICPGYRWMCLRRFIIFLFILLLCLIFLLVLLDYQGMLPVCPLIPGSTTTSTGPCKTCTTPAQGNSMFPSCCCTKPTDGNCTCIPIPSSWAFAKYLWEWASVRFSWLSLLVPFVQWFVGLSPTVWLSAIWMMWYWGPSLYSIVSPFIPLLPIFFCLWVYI

Sequence | pKd [1] | pKd [2]
AGCAGCACAGAGGTCCCAACCGGAATCTGCACCTCGCGTGCTACCGTGAA [K2-4] | 7.50 | –
AGCAGCACAGAGGTCCTGCATCACGAAGCCTGGCAGCGTGCTACCGTGAA [MP-1] | – | 7.55
